Assay [1] addresses T1, human IL17C (human, UniProt Q9P0M4 19-197).
T1 sequence: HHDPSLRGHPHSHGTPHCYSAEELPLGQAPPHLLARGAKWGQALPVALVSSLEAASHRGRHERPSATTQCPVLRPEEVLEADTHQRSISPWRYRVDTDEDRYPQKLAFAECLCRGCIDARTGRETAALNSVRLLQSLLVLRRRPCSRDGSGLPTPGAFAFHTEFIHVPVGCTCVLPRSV
Description: ELISA, purified chimeric human/mouse IgG2a on huIL-17C.

The target in assay [2] is T2, mouse IL17C (mouse, UniProt Q8K4C5 17-194, limits assumed, biotinylated in the receptor interaction, inhibition and serum stability assays (sites not given)).
T2 construct: Bought recombinant protein; About 22 kDa reduced and about 40 kDa non-reduced on SDS-PAGE; Used plain (coated, ELISA) or biotinylated; also called biotinylated mouse IL17C; biotin-IL17C
T2 sequence (looked up): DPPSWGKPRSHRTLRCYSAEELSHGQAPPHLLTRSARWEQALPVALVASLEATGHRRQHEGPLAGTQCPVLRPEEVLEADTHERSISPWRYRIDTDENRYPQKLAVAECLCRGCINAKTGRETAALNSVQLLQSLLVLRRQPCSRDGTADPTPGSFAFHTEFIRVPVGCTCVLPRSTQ
Description: ELISA, purified chimeric human/mouse IgG2a titrated on mouse IL17C, n=1-2. Here is the method: All purified chimeric human-mouse chimeric IgG2a antibodies were titrated on mouse IL17C for EC₅₀ determination in ELISA starting with a concentration of 100 nM. EC₅₀ values on mouse IL17C were determined in 1 to 3 independent experiments.

Assay [3] deals with T3, mouse IL-17B (mouse, UniProt Q9QXT6 23-180, limits assumed).
T3 sequence (looked up): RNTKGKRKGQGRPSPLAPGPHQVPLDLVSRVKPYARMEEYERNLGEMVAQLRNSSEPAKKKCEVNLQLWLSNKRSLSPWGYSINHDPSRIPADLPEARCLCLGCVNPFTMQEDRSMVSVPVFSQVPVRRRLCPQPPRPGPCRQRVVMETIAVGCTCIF
Kind of assay: ELISA, purified chimeric human/mouse IgG2a on msIL-17B. (In general: An ELISA detects its analyte on a solid surface through an enzyme-linked reagent.)

Assay [4] concerns the target T2, mouse IL17C. Kind of assay: solution equilibrium titration (SET), ECL based, monovalent Fab fragment (Fab_FH format). The protocol:
Monovalent affinities of anti-IL17C antibodies were determined by solution equilibrium titration (SET) using Fab fragments. Affinity determination in solution was basically performed as described in the literature (Friquet et al., (1985) J. Immunol. Meth. 77: 305-19). In order to improve the sensitivity and accuracy of the SET method, it was transferred from classical ELISA to ECL based technology (Haenel et al. (2005) Anal Biochem. 339.1: 182-84). Binders were expressed and purified in Fab_FH format.

For assay [5], the target named is T2, mouse IL17C. Description: mIL17C - mIL-17RE inhibition assay (MSD): human/mouse IgG2a pre-incubated with biotinylated mouse IL17C, binding to coated mouse IL17RE/Fc detected by Streptavidin-ECL. Here is the method:
To determine inhibitory activity of purified anti-IL17C human-mouse chimeric IgG2a in a mIL-17 RE interaction assay, Maxisorp™ 384 well MSD plates were coated with 30 μL mouse IL17RE/Fc at 75 ng/mL in PBS at 4° C. overnight. The next day 25 μL of a serial antibody dilution (concentrations from 0.001 to 100 nM) were pre-incubated for 30 min at RT with an equal volume of biotinylated mouse IL17C at 0.125 nM. After blocking of plates for 1 h with 2.5% BSA in PBST, preformed antibody-ligand complexes were added for 1 h to coated IL17RE/Fc and receptor binding was detected via Streptavidin-ECL using MSD Sector Imager.
To characterize the antibodies in human/mouse IgG2a format in more detail, for each candidate IC₅₀ values were determined in the IL-17 receptor E inhibition assay as described herein above in up to 4 independent experiments.

Assay [6] concerns the target T2, mouse IL17C. Description: ELISA on biotin-IL17C captured on avidin: chimeric IgG2a incubated 24 h at 37°C in mouse serum against freshly diluted IgG2a. Here is the method: 96 well Maxisorp plates (Nunc; #442404) were coated with avidin at a concentration of 1 μg/ml in PBS overnight at 4° C. The next day, anti-IL17 chimeric IgG2a were incubated in mouse serum for 24 h at 37° C. at a final concentration 100 μg/mL. After the incubation step the antibodies were diluted 1:100 in LowCross buffer (Candor Bioscience; #100500). As a reference the same set of antibodies were freshly diluted in LowCross buffer+1% mouse serum and incubated for 30 min at RT. Avidin coated plates were incubated with blocking buffer (Superblock blocking buffer from Pierce, #37515) and subsequently 100 μL of 0.1 μg/mL biotin-IL17C in LowCross buffer was added to blocked wells. After a washing step a serial dilution of the serum-incubated and freshly diluted IgGs was added. Binding of IgGs was detected by anti-mouse-IgG2a POD conjugated detection antibody (diluted 1:5000 in LowCross buffer) using TMB One Component HRP as substrate. The reaction was stopped by adding 1M HCl and absorbance was measured at 450 nm.

Assay [7] concerns the target T3, mouse IL-17B. Description: ELISA, purified chimeric IgG2a.
The target of assay [8] is T1, human IL17C. Description: ELISA, purified chimeric IgG2a.

B1: MOR12754 (antibody, V domains shown)
VH: EVQLLESGGGLVQPGGSLRLSCAASGFTFSDYAMTWVRQAPGKGLEWVSVISYDGSLTYYADSVKGRFTISRDNSKNTLYLQMNSLRAEDTAVYYCARDPGVWWLSYLDYWGQGTLVTVSS
VL: DIQMTQSPSSLSASVGDRVTITCRASQDIISYLAWYQQKPGKAPKLLIYGASNLQGGVPSRFSGSGSGTDFTLTISSLQPEDFAVYYCQQYMIAPPNTFGQGTKVEIKR
notes: Tested as human-mouse chimeric IgG2a (human variable, mouse constant regions); Potential N-linked glycosylation sites were removed by site-directed mutagenesis
Broadly, the EC50 is the concentration at which the effect is half-maximal. High values mean a need for much substance, low ones an effect from little substance. By Kd is commonly meant the equilibrium constant for the complex coming apart. Lower therefore signals tighter binding. The IC50 is the concentration needed to halve the response being measured. Low values mean greater potency in that assay, high ones weaker potency in that assay. As to B1, the binding result in assay [1] and in assay [3] was “no binding” throughout. In assay [2], the concentration for a half-maximal effect (EC50) came to 400 pM. This molecule showed a dissociation constant Kd in assay [4] of 4100 pM. Besides, in assay [5], the IC50 came out at 8440 pM. Moreover, the “Coefficient of variation (Mouse Serum Stability Assay 24h/37°C)” value (from here on “Coefficient of variation”) in assay [6] was 17%.

B2: MOR12743 (antibody, V domains shown)
VH: QVQLVQSGAEVKKPGASVKVSCKASGYTFTSNFIHWVRQAPGQGLEWMGWISPYNGDTNYAQKFQGRVTMTRDTSISTAYMELSRLRSEDTAVYYCARESVYYGSDYGYNGMDIWGQGTLVTVSS
VL: DIELTQPPSVSVSPGQTASITCSGDNLGEEYVSWYQQKPGQAPVLVIYDDTKRPSGIPERFSGSNSGNTATLTISGTQAEDEADYYCASWDLWSVEVFGGGTKLTVLG
notes: Tested as human-mouse chimeric IgG2a (human variable, mouse constant regions); Potential N-linked glycosylation sites were removed by site-directed mutagenesis; also called MOR12743_h/m; MOR1243
For B2, the binding result in assay [1] and in assay [3] was “no binding” in each case. Also, the EC50 in assay [2] was 300 pM. The molecule also came in with a Kd in assay [4] of 48 pM. Further, in assay [5], the IC50 came to 16 pM. Besides, the “Coefficient of variation” value in assay [6] stood at 2.88%.

B3: MOR12753 (antibody, V domains shown)
VH: QVQLQQSGPGLVKPSQTLSLTCAISGDSVSSSSAAWNWIRQSPSRGLEWLGRIEYRSKWYNDYAVSVKSRITINPDTSKNQFSLQLNSVTPEDTAVYYCAREMYYYSGYGVFDVWGQGTLVTVSS
VL: DIELTQPPSVSVSPGQTASITCSGDALGGEYVHWYQQKPGQAPVLVIYDDDKRPSGIPERFSGSNSGNTATLTISGTQAEDEADYYCSSFDTWTSYVFGGGTKLTVLG
notes: as for B1
In turn, B3 yielded a Kd in assay [4] of 62 pM. For the same molecule, the binding result in assay [7] and in assay [8] was “no binding” throughout.

B4: MOR12744 (antibody, V domains shown)
VH: QVQLVQSGAEVKKPGASVKVSCKASGYTFTSNFIHWVRQAPGQGLEWMGWISPYNGDTNYAQKFQGRVTMTRDTSISTAYMELSRLRSEDTAVYYCARESVYYGSDYGYNGMDIWGQGTLVTVSS
VL: DIELTQPPSVSVSPGQTASITCSGDNLGEEYVSWYQQKPGQAPVLVIYDDTKRPSGIPERFSGSNSGNTATLTISGTQAEDEADYYCASWAFYSSQVFGGGTKLTVLG
notes: as for B1
Turning to B4, the binding result in assay [1] and in assay [3] was “no binding” each time. In addition, a half-maximal response in assay [2] (EC50) required 280 pM. Also, binding in assay [4] was characterised by a dissociation constant (Kd) of 53 pM. The molecule also gave an IC50 in assay [5] of 12 pM. Besides, the “Coefficient of variation” value in assay [6] was determined as 11.8%.

B5: MOR12746 (antibody, V domains shown)
VH: QVQLVQSGAEVKKPGASVKVSCKASGYTFTSNFIHWVRQAPGQGLEWMGWISPYNGDTNYAQKFQGRVTMTRDTSISTAYMELSRLRSEDTAVYYCARESVYYGSDYGYNGMDIWGQGTLVTVSS
VL: DIELTQPPSVSVSPGQTASITCSGDNLGEEYVSWYQQKPGQAPVLVIYDDTKRPSGIPERFSGSNSGNTATLTISGTQAEDEADYYCSSWTHFSNIVFGGGTKLTVLG
notes: as for B1
Consider B5, for which the binding result in assay [1] and in assay [3] was “no binding” each time. In assay [2], this molecule registered an EC50 of 380 pM. This molecule displayed a dissociation constant (Kd) in assay [4] of 56 pM. In addition, in assay [5], the IC50 was 23 pM. Moreover, the “Coefficient of variation” value in assay [6] is 7.36%.

B6: MOR12745 (antibody, V domains shown)
VH: QVQLVQSGAEVKKPGASVKVSCKASGYTFTSNFIHWVRQAPGQGLEWMGWISPYNGDTNYAQKFQGRVTMTRDTSISTAYMELSRLRSEDTAVYYCARESVYYGSDYGYNGMDIWGQGTLVTVSS
VL: DIELTQPPSVSVSPGQTASITCSGDNLGEEYVSWYQQKPGQAPVLVIYDDTKRPSGIPERFSGSNSGNTATLTISGTQAEDEADYYCSAWATWSVAVFGGGTKLTVLG
notes: as for B1
In the case of B6, the binding result in assay [1] and in assay [3] was “no binding” each time. The molecule further had a 50% effective concentration (EC50) in assay [2] of 400 pM. This molecule also returned a Kd in assay [4] of 75 pM. In addition, the IC50 in assay [5] was determined as 13 pM. Further, the “Coefficient of variation” value in assay [6] was 15.9%.

B7: MOR12761 (antibody, V domains shown)
VH: EVQLVQSGAEVKKPGESLKISCKGSGYSFNNYWIAWVRQMPGKGLEWMGFIYPSNSATQYSPSFQGQVTISADKSISTAYLQWSSLKASDTAMYYCARDNEYSDSYFDVWGQGTLVTVSS
VL: DIVLTQSPATLSLSPGERATLSCRASQIVSSYLAWYQQKPGQAPRLLIYDASSRATGIPARFSGSGSGTDFTLTISSLEPEDFATYYCQQSNGWLPTFGQGTKVEIKR
notes: as for B1
On to B7, for which the binding result in assay [1] and in assay [3] was “no binding” in each case. For the same molecule, the EC50 in assay [2] is 360 pM. The molecule further yielded a Kd in assay [4] of 85 pM. In addition, the IC50 in assay [5] is 24 pM. For the same molecule, in assay [6], the “Coefficient of variation” value was determined as 1.23%.

B8: MOR12742 (antibody, V domains shown)
VH: QVQLVQSGAEVKKPGSSVKVSCKASGGTFSSYGISWVRQAPGQGLEWMGRIIPIFGTAYYAQKFQGRVTITADESTSTAYMELSSLRSEDTAVYYCARDMRYHDYWPYYYGSDQFDVWGQGTLVTVSS
VL: DIVLTQPPSVSGAPGQRVTISCSGSSSNIGSDIVSWYQQLPGTAPKLLIYYNNLRPSGVPDRFSGSKSGTSASLAITGLQAEDEADYYCQSWDWASLAMVFGGGTKLTVLG
notes: as for B1
With B8, the binding result in assay [7] and in assay [8] was “no binding” throughout.

The record behind these values is patent US20190062422A1 (MorphoSys, published 2019).
